Laboratory results: patent publication US7893197B2, “Relaxin-3 chimeric polypeptides and their preparation and use” (Janssen Pharmaceutica N.V., priority 2005, dated 2011)

Assays:
GPCR135 = target: T1, GPCR135 (Homo sapiens, UniProt Q9NSD7); test: Inhibition of forskolin stimulated β-galactosidase expression in SK-N-MC/β-gal cells; assay type: cell-based
T1 construct: expressed in transfected cells
T1 sequence (Q9NSD7 1-469): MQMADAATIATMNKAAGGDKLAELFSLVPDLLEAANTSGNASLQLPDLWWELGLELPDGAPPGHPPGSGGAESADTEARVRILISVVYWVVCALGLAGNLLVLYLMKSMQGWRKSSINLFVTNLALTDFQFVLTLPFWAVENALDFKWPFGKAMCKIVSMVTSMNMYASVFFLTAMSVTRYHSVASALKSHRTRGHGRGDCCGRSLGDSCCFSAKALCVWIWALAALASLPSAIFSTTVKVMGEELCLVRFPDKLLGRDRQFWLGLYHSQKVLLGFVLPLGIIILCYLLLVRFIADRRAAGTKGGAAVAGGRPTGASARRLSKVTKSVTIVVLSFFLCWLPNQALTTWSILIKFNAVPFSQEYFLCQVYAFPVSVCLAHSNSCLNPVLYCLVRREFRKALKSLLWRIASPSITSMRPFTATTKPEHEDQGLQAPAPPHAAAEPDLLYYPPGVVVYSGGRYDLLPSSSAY
Protocol: (§1) Different chimeric polypeptides at various concentrations were added to SK-N-MC/β-gal cells expressing human GPCR135 (FIG. 4A) or GPCR142 (FIG. 4B) to inhibit forskolin stimulated β-galactosidase expression. […] In parallel, chimeric polypeptides at various concentrations were added to SK-N-MC/β-gal cells expressing human LGR7 (FIG. 4C) and LGR8 (FIG. 4D) to stimulate β-galactosidase expression. Relaxin-3 and INSL3 were used as positive controls for LGR7 and LGR8, respectively. Intracellular β-galactosidase activity was measured by a colorimetric assay using CRGP as the substrate and reading the absorbance at wavelength of 570 nm. Data represent mean±SEM (n=3).

LGR7 = target: T2, LGR7 (Homo sapiens, UniProt Q9HBX9); test: Radioligand competition binding, [125I]-relaxin-3, live transfected COS-7 cells
T2 construct: Human LGR7 cDNA containing the complete coding region was PCR amplified; expressed in transfected cells
T2 sequence (Q9HBX9 1-757): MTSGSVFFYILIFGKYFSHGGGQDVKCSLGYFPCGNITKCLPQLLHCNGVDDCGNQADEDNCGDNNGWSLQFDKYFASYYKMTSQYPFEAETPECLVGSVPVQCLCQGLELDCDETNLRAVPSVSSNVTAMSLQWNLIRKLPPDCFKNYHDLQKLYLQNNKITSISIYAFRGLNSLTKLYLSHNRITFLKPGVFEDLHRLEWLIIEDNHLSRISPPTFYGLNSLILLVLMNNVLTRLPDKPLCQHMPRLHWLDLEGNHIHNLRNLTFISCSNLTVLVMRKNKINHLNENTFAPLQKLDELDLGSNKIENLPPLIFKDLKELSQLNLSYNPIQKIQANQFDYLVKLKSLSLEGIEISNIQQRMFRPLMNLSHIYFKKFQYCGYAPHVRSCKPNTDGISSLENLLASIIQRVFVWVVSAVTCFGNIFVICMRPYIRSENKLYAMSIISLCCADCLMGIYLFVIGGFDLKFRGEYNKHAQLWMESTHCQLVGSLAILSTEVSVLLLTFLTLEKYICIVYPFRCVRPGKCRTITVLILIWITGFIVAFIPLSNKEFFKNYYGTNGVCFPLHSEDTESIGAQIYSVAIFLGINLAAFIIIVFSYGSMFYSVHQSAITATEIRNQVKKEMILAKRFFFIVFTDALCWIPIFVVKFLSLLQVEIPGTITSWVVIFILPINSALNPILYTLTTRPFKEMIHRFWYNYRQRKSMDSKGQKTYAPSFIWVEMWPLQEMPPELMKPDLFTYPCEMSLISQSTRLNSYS
Protocol: For GPCR135, GPCR142, and LGR7, [^125I]-relaxin-3 was used as the radioligand at a final concentration of 100 pM. Different unlabeled peptides were used in the binding assay as the competitors. […] Different unlabeled peptides including relaxin-3 chimeras at various concentrations were added to the binding assay as the competitors. Data represent mean±SEM (n=3).
Radioligand binding assays for LGR7 and LGR8 were performed using live COS-7 cells transiently transfected with LGR7 or LGR8 expression plasmids in 15-cm culture dishes using LipofectAmine (Invitrogen). Two days after transfection, the transfected cells were detached from the 15-cm culture dished using phosphate buffered saline (PBS) plus 10 mM EDTA, seeded into 96-well opaque poly-D-lysine coated culture plates and used for radioligand binding assays. For LGR7, [^125I]-relaxin-3 was used as the tracer. […] [^125I]-labeled tracer was added in binding reactions at a final concentration of 100 pM in binding buffer containing DMEM plus 50 mM HEPES and 1% bovine serum albumin. Unlabeled relaxin-3 and relaxin-3 chimeric polypeptides were added at various concentrations to the binding assays as the competitors, as indicated (FIG. 3). The binding mixtures were incubated at room temperature for 1 hour. The unbound radioligand was removed by aspiration of the binding buffer. The cells were washed with PBS. The bound radioligand was counted in a scintillation counter (TopCount/NTX). The results were analyzed using Prism 3.0 program (Graphpad, San Diego, Calif.). The IC50 values represent the ligand concentrations that inhibit 50% of the maximum specific binding.

GPCR142 = target: T3, GPCR142 (Homo sapiens, UniProt Q8TDU9, L329S); test: Inhibition of forskolin stimulated β-galactosidase expression in SK-N-MC/β-gal cells; assay type: cell-based
T3 construct: expressed in transfected cells
T3 sequence (Q8TDU9 whole entry L329S): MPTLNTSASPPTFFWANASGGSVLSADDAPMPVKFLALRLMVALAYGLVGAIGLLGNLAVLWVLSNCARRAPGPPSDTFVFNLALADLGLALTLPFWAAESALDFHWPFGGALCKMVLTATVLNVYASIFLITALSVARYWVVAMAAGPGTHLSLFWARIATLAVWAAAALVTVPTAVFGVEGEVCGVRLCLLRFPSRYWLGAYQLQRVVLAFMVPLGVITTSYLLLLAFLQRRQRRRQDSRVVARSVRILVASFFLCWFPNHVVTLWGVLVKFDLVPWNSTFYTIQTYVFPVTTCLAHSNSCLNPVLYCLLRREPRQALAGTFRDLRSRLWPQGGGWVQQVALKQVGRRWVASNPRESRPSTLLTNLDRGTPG
Protocol: as §1

LGR8 = target: T4, LGR8 (Homo sapiens, UniProt Q8WXD0); test: Stimulation of β-galactosidase expression in SK-N-MC/β-gal cells; assay type: cell-based; conditions: highest concentration tested 1 μM
T4 construct: Human LGR8 cDNA containing the complete coding region was PCR amplified; expressed in transfected cells
T4 sequence (Q8WXD0 whole entry): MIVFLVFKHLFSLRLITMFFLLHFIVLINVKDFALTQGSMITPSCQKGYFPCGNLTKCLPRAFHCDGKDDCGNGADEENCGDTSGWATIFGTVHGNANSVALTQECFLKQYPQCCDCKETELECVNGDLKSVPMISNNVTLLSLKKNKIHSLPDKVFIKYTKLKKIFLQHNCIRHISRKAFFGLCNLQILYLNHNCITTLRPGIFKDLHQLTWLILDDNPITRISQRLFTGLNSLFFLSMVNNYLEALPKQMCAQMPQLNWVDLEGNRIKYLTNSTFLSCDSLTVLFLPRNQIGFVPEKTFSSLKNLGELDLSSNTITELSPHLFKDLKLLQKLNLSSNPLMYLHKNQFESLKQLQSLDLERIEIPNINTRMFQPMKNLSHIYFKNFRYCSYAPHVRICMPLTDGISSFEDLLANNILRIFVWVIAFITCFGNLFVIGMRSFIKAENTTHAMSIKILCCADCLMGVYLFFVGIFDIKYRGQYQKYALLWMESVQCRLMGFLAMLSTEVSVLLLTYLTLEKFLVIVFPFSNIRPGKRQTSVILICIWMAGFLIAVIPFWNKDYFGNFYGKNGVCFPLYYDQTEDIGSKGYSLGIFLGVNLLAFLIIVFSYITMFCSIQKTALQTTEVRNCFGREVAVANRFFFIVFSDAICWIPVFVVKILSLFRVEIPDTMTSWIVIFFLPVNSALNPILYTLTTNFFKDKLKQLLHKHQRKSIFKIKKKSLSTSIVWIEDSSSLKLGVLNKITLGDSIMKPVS
Protocol: FIGS. 1A-1D show the activation of GPCR135 and GPCR142 by relaxin-3 B-chain, but not of LGR7 or LGR8. In FIG. 1A, SK-N-MC/β-gal cells expressing human GPCR135 were stimulated with relaxin-3, relaxin-3 B-chain, porcine relaxin, or INSL3 at various concentrations to inhibit the forskolin stimulated β-galactosidase expression. Forskolin was added to cells at a final concentration of 5 μM to stimulate the β-galactosidase expression. FIG. 1B depicts results for SK-N-MC/β-gal cells expressing human GPCR142 stimulated as in FIG. 1A. In FIG. 1C, SK-N-MC/β-gal cells expressing human LGR7 were stimulated with relaxin-3, relaxin-3 B-chain, porcine relaxin, and INSL3 at various concentrations to induce the β-galactosidase expression. The intracellular β-galactosidase activities were measured by a colorimetric assay using CRGP as the substrate and reading the absorbance at a wavelength of 570 nm. For FIG. 1D, SK-N-MC/β-gal cells expressing human LGR8 were stimulated as in FIG. 1C.
FIGS. 4A-4D illustrate the evaluation of the agonist activity of relaxin-3 chimeric polypeptides in biofunctional assays. Different chimeric polypeptides at various concentrations were added to SK-N-MC/β-gal cells expressing human GPCR135 (FIG. 4A) or GPCR142 (FIG. 4B) to inhibit forskolin stimulated β-galactosidase expression. Human relaxin-3 was used as the positive control. In parallel, chimeric polypeptides at various concentrations were added to SK-N-MC/β-gal cells expressing human LGR7 (FIG. 4C) and LGR8 (FIG. 4D) to stimulate β-galactosidase expression. Relaxin-3 and INSL3 were used as positive controls for LGR7 and LGR8, respectively. Intracellular β-galactosidase activity was measured by a colorimetric assay using CRGP as the substrate and reading the absorbance at wavelength of 570 nm. Data represent mean±SEM (n=3).
It has been shown that synthetic human relaxin-3 B-chain alone, but not A-chain, is an agonist for both GPCR135 and GPCR142 (Liu et al., 2003, Journal of Biological Chemistry, 278:50754-50764 and Liu et al., 2003, Journal of Biological Chemistry, 278:50765-50770). Those studies were repeated herein in SK-N-MC/β-gal cells, which harbor a β-galactosidase gene under the control of a cAMP responsive element (CRE) (Liu et al., 2001, Molecular Pharmacology, 59:420-426). In such SK-N-MC/β-gal cells, an increase in intracellular cAMP concentration leads to increased β-galactosidase gene expression, the activity of which is measured using Chlorophenol Red-β-D-Galactopyranoside (CPRG) as the substrate.
The inventive chimeric polypeptides were each independently tested for their ability to activate either GPCR135, GPCR142, LGR7, or LGR8, respectively, in separate pools of SK-N-MC/β-gal cells (see supra), each pool stably expressing one of the respective receptors, as indicated (FIG. 4).
Cells were seeded in 96-well tissue culture plate at a density of 30,000 cells/well in MEM plus 10% fetal serum, sodium pyruvate, penicillin, streptomycin, and G418 (400 mg/L). For cells expressing GPCR135 or GPCR142, forskolin was added to cells at a final concentration of 5 μM to stimulate intracellular cAMP accumulation. Different concentrations of each of the inventive polypeptides were then added to the cells to inhibit the forskolin induced cAMP accumulation. For cells expressing LGR7 or LGR8, intracellular cAMP was stimulated with each of the inventive chimeric polypeptides at various concentrations.
For all cells, after adding the chimeric polypeptides, cells were incubated for 6 additional hours in 37° C. incubator. The media was then aspirated and the β-galactosidase activities measured as previously described (Liu et al., 2001, Molecular Pharmacology, 59:420-426). The results were analyzed by Prism 3.0 software. […]

[1] = highest concentration tested 1 μM
[2] = inhibition of 5 μM forskolin stimulated β-galactosidase expression, mean ± SEM, n = 3

Row | Substance | agonist activity at GPCR135, in words (GPCR135; [1]) | binding to LGR7, in words (LGR7; [1]) | agonist activity at GPCR142, in words (GPCR142; [1]) | activation of LGR8, in words (LGR8) | EC50 to activate GPCR135 (GPCR135; [2]) | EC50 to activate GPCR142 (GPCR142; [2]) | affinity for LGR7 (LGR7; discussion) [nM]
1 | R3/I4: chimeric polypeptide: human relaxin-3 B-chain and INSL4 A-chain; mature polypeptide SEQ ID NO:22 (RAAPYGVRLCGREFIRAVIFTCGGSRWFDPFCCEVICDDGTSVKLC; Human Relaxin-3/Insulin-like 4 chimeric mature polypeptide) | stimulated GPCR135 or GPCR142 at the highest concentration (1 μM) tested only | inactive | stimulated GPCR135 or GPCR142 at the highest concentration (1 μM) tested only | no activity | – | – | –
2 | R3/I5: chimeric polypeptide: human relaxin-3 B-chain and INSL5 A-chain; mature polypeptide SEQ ID NO:23 (RAAPYGVRLCGREFIRAVIFTCGGSRWQDLQTLCCTDGCSMTDLSALC; Human Relaxin-3/Insulin-like 5 chimeric mature polypeptide) | – | – | – | inactive | low nanomolar range | low nanomolar range | –
3 | R3/I6: chimeric polypeptide: human relaxin-3 B-chain and INSL6 A-chain; mature polypeptide SEQ ID NO:24 (RAAPYGVRLCGREFIRAVIFTCGGSRWGYSEKCCLTGCTKEELSIAC; Human Relaxin-3/Insulin-like 6 chimeric mature polypeptide) | – | – | – | inactive | – | – | 10 to 15
